The supplement of paper PMC9170038

The sequences below were run on MS2 coat protein (assay: apparent KD of MS2 coat protein; higher = weaker reporter binding). Details: Eterna round: R107; input ligand: theophylline 2 mM.
Method in brief: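 SNAP-549-labelled MS2 coat protein was titrated onto designed RNA switches that had been transcribed on-chip from Illumina sequencing clusters. Amounts doubled from 0.7 or 1.5 nM to 3 µM in 100 mM Tris-HCl pH 7.5, 80 mM KCl, 4 mM MgCl2, with constant ligand or without. Apparent KD is the median per design of normalised cluster binding-curve fits.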

**Q.** How did the “apparent KD of MS2 coat protein” value turn out when “AAUAAGCAGCUGCAUCAUGGGUGAGCAGAUACCAGCUAGGAAACUAGCCCUUGGCAGCUGCAACAUGAGGAUCACCCAUGUAAUA [(T)'-(M)'-(T1)-(T2)-(M1)-(M2)_Design5]” was run?
**A.** Its value is 46.3 nM.

**Q.** Which “apparent KD of MS2 coat protein” value does the source give for “CACGAAAGAUCGGCCGCCACUAUUUGAUGUGUUCUUUCACAUGAGGAUCACCCAUGUUCUUAUUUUAGGACCGGGAUUGAGCGUG [ETB #2]” here?
**A.** Its value is 145 nM.

**Q.** Which “apparent KD of MS2 coat protein” value does the source give for “AACGUCUUGUCGGCCGCCACUGUAUGGUGCGUGACAUGAAACAUGAGGAUCACCCAUGUAGCAUGCAGGACCGGGACAGUGCCAA [Beriaran]” here?
**A.** Its value is 11.6 nM.

**Q.** How did the “apparent KD of MS2 coat protein” value turn out when “AAUCAUGAAAACAUGACAUGAGGAUCACUCCGAGGACCGGUACGGCCGCCACUCGCGAGGAGGCACAUGAGGAUCACCCAUGUUA [SS Tryp A #1]” was run?
**A.** Its value is 148 nM.

**Q.** With “GGAUAGAUAGGAGAUACCAGACACAUUAACAUGAGGAUCACCCAUGUGUCUGCACUAAGUGUCCCUUGGCAGCUCGGAGAUCUGA [Same State - Theophylline B]” as the sequence, how does the “apparent KD of MS2 coat protein” value read?
**A.** Its value is 30.6 nM.

**Q.** With “CACGAAAGAUCGGCCGCCACUAUUUGAUGUGUUCUUUCACAUGAGGAUCACCCAUGUUCUUUCUUUAGGACCGGGAUUGAGCGUG [ETB #1]” as the sequence, how does the “apparent KD of MS2 coat protein” value read?
**A.** The value was 162 nM.

**Q.** “AAUUAUCAGUCGGCCGCCACUGACACAUGAGGAUCACCCAUGUAACUUGGGUUAAAUUUAAUAAACAGGACCGGGACAAAGGCUA [JR_ExcTryptoB_Sub010]” was tested. Which “apparent KD of MS2 coat protein” value did it give?
**A.** The value was 192 nM.

**Q.** For “AGUAUCAGUGGAAGGAGCGUCGCGAAUGUCACAUGAGGAUCACCCAUGUCGUCUUGAGCGCGACAGGUAGGUCGCCACGGUAGGC [SS-ArgB4]”, which “apparent KD of MS2 coat protein” value is on record?
**A.** Its value is 14.5 nM.

**Q.** How did the “apparent KD of MS2 coat protein” value turn out when “ACAUGAGGAUCACCCAUGUAACCUAGGGAAGGAGCGGUGUAAGAGCCAGGUAGGUCGCCCACAUGUGGAUCACCCAUGGUGAGGG [#24 Same State - Arginine A]” was run?
**A.** Its value is 39.2 nM.

**Q.** For “UAUCCACAUGAGGAUCACCCAUGUAAGGAAGGAGCGGUGAAUGAACCAGGUAGGUCGCCUUGGUGAGGAUCAUCUAUGGAUUCGU [Exclusion - Arginine A (Freestyle 10)]”, which “apparent KD of MS2 coat protein” value is on record?
**A.** Its value is 43.5 nM.

Same assay, conditions: Eterna round: R107; input ligand: tryptophan 2.4 mM

**Q.** With “ACGGAUCGGAAACGAUCCGCGGCUAGGGUGCGAGGACCGGUACGGCCGCCACUCGGGUAACAUGAGGAUCACCCAUGUCCGAUUU [ETA NP+V+V2 #13 Same Structure]” as the sequence, how does the “apparent KD of MS2 coat protein” value read?
**A.** Its value is 198 nM.

**Q.** For “ACGAACGAUAGUGAUACCAGACGUACAUGAGGAUCACCCAUGUUUUGGGUAAGGUUAAUAGUCCCUUGGCAGCACUUUAAGUUCG [JR_ExcTheophyB_Sub007]”, which “apparent KD of MS2 coat protein” value is on record?
**A.** The value was 50.9 nM.

**Q.** “UACCGGUGACUCGAUACCAGUCCUCUAAAAUACAUGAGGAUCACCCAUGUAACCUUCCCAGACCCUUGGCAGCGACACAUGGAUA [theeternabot_sameState_MS2_Theo_B_49]” was tested. Which “apparent KD of MS2 coat protein” value did it give?
**A.** Its value is 147 nM.

**Q.** “GACAUGAGGAUCACCCAUGUUUUCUAUGAAGGAGCGUCGGAAAUGACAGGUAGGUCGCAUGGUAGGACUUGUAUCUUGUAUGUAG [EAA NP+V+V2 #10]” was tested. Which “apparent KD of MS2 coat protein” value did it give?
**A.** Its value is 15.5 nM.

**Q.** Which “apparent KD of MS2 coat protein” value does the source give for “GCUUGGGUGGCCCAGCCCUGGCAGGGCGAUACCAGCACGGUAACGUGCCCUUGGCAGCGCACAUGAGGAUCACCCAUGUGGUGCG [#1 Exclusion - Theophylline A Attempt #27 (HarryS)]” here?
**A.** Its value is 112 nM.

**Q.** With “ACGAACUGUAGUGAUACCAGACACACAUGAGGAUCACCCAUGUUGUUAGCAUGGUGAAUAGUCCCUUGGCAGCACAGUUAGUUCG [#12 Exclusion-TheophyllineB]” as the sequence, how does the “apparent KD of MS2 coat protein” value read?
**A.** The value was 94.3 nM.

**Q.** Which “apparent KD of MS2 coat protein” value does the source give for “GCUUGGGUGGCCCAGCCCUGGCAGGGCGAUACCAGCCCGGUAACGGGCCCUUGGCAGCGCACAUGAGGAUCACCCAUGUGGUGCG [#1 Exclusion - Theophylline A Attempt #28 (HarryS)]” here?
**A.** Its value is 44.9 nM.

**Q.** With “AAUAACAUGAGGAUCACCCAUGUAAAAGAUACCAGAUGCAUGAUGAUCCCUUGGCAGCUUAAAACGCGAUUGAUUACAAUCGCGA [Mat - Same State Theophlline A - Mod of Eli - D12]” as the sequence, how does the “apparent KD of MS2 coat protein” value read?
**A.** The value was 27.5 nM.

**Q.** For “UCGCUCUGGGUGGAAUCCGGAGAUGUGGAAGGAGCGCUCGAAAGGGCAGGUAGGUCGCCAACGGACAUGAGGAUCACCCAUGUAC [#23 Same State - Arginine A]”, which “apparent KD of MS2 coat protein” value is on record?
**A.** Its value is 49.2 nM.

**Q.** For “GCCAUCGGCGGAAGCCGAUGGUAUACGGAAGGAGCGCACGAAAGUGCAGGUAGGUCGCUGAACAUGAGGAUCACCCAUGUAAUAA [#28 Same State - Arginine A]”, which “apparent KD of MS2 coat protein” value is on record?
**A.** Its value is 20.3 nM.

**Q.** With “GUAUACAUGAGGAUCACCCAUGUGCCAGAAGGAGCGCUGGAAACGGCAGGUAGGUCGCUGGUAGGUCCUCUAUCUAGACGUUCGG [#17 Exclusion - Arginine A]” as the sequence, how does the “apparent KD of MS2 coat protein” value read?
**A.** Its value is 60.3 nM.

**Q.** Which “apparent KD of MS2 coat protein” value does the source give for “UUGGGUUUGUGAAGGAGCGGGAAAUAUAUAUAUAUAAUCCUAACAUGAGGAUCACCCAUGUCCCAGGUAGGUCGCGCGGGUUUGG [12.N]” here?
**A.** Its value is 51.6 nM.

**Q.** For “AAAAUAAAUAAAACACGUAACAUGAAGGAUACCAGACAGGAAACUGUCCCUUGGCAGCCUCUACAUGAGGAUCACCCAUGUCGUG [Mat - Same State Theophlline A - Mod of Eli - D17]”, which “apparent KD of MS2 coat protein” value is on record?
**A.** Its value is 266 nM.

**Q.** Which “apparent KD of MS2 coat protein” value does the source give for “GCAUCCUAGUCGGCCGCCACUGCAGUAGCACCUGCUACAUGGAAACAUGAGGAUCACCCAUGUAGCAGGACCGGGACUAGGAUGC [(Trp1)-(TM)''-(TM)'-(Ms2)-(Trp2)_Design8]” here?
**A.** The value was 236 nM.

**Q.** With “ACGCUGAUUGAUUACAAUCAGCGAAAAGAUACCAGUGGGUAAUCCCACCCUUGGCAGCUUAAACAAGAGGAUCACCCUUGUGGUA [TheoAS 16 #MS2Right #BothOrNeither #AlternativeMS2]” as the sequence, how does the “apparent KD of MS2 coat protein” value read?
**A.** The value was 521 nM.

**Q.** With “GGCACCAGGAGAAGGAGCGUGAAGACAUGAGGAUCACCCAUGUAGAGGCCCGUACCGGGUUCGCAGGUAGGUCGCUCCUGGUGCC [#1 Same State - Arginine B Attempt #14 (HarryS)]” as the sequence, how does the “apparent KD of MS2 coat protein” value read?
**A.** The value was 24.2 nM.

**Q.** With “AAUAAGCAGCUGCAUCAUGGGUGAGCAGAUACCAGCUAGGAAACUAGCCCUUGGCAGCUGCAACAUGAGGAUCACCCAUGUAAUA [(T)'-(M)'-(T1)-(T2)-(M1)-(M2)_Design5]” as the sequence, how does the “apparent KD of MS2 coat protein” value read?
**A.** Its value is 34.7 nM.

**Q.** “ACGAUACGACAUGAGGAUCACCCAUGUGAUACCAGCGUGGAAACACGCCCUUGGCAGCACAAAUACUCCAGAAACGUAUCGAAAA [MAT - Exclusion Theophlline A - Mod of Eli - D7]” was tested. Which “apparent KD of MS2 coat protein” value did it give?
**A.** The value was 285 nM.

**Q.** “AUUAUCAUGGUCAUAUAUAUAUCUUCAGAUACCAGACUAUAUUAAGUCCCUUGGCAGCUGUUACAUGAGGAUCACCCAUGUUAUA [JR_ExcTheophyA_Sub014]” was tested. Which “apparent KD of MS2 coat protein” value did it give?
**A.** The value was 102 nM.

**Q.** Which “apparent KD of MS2 coat protein” value does the source give for “GGAUAGAUAGGAGAUACCAGACACAUUAACAUGAGGAUCACCCAUGUGUCUGCACUAAGUGUCCCUUGGCAGCUCGGAGAUCUGA [Same State - Theophylline B]” here?
**A.** The value was 31.9 nM.

**Q.** With “CUUAUAGUAACUGAUACCAGUGUACUGACAUGAGGAUCACCCAUGUUGGGUUUUGUUGUACACCCUUGGCAGCAGAAUCUAUAAG [AstrosExyTheB#10]” as the sequence, how does the “apparent KD of MS2 coat protein” value read?
**A.** The value was 58.8 nM.

**Q.** Which “apparent KD of MS2 coat protein” value does the source give for “AGUAUCAGUGGAAGGAGCGUCGCGAAUGUCACAUGAGGAUCACCCAUGUCGUCUUGAGCGCGACAGGUAGGUCGCCACGGUAGGC [SS-ArgB4]” here?
**A.** Its value is 13.5 nM.

**Q.** With “ACAUGAGGAUCACCCAUGUAACCUAGGGAAGGAGCGGUGUAAGAGCCAGGUAGGUCGCCCACAUGUGGAUCACCCAUGGUGAGGG [#24 Same State - Arginine A]” as the sequence, how does the “apparent KD of MS2 coat protein” value read?
**A.** The value was 26.6 nM.

**Q.** With “UAUCCACAUGAGGAUCACCCAUGUAAGGAAGGAGCGGUGAAUGAACCAGGUAGGUCGCCUUGGUGAGGAUCAUCUAUGGAUUCGU [Exclusion - Arginine A (Freestyle 10)]” as the sequence, how does the “apparent KD of MS2 coat protein” value read?
**A.** Its value is 41.8 nM.

**Q.** “AACAGACGAGACGAUACCAGUCUCUUAGCGCACAUGAGGAUCACCCAUGUUGGCAAGCUCGACCCUUGGCAGCGUACCUUUGAUC [theeternabot_sameState_MS2_Theo_B_6]” was tested. Which “apparent KD of MS2 coat protein” value did it give?
**A.** The value was 24.3 nM.
